Changes are numbered by the printed parent chain.
Legend:
[1] = biological target: recombinant human Nectin-4 protein (human) (UniProt Q96NY8); assay: ELISA, antigen coated at 5 ug/ml, antibody 10 ng/ml
[2] = biological target: recombinant human Nectin-4 protein (human) (UniProt Q96NY8); assay: ELISA, antigen coated at 5 ug/ml, antibody 100 ng/ml
[3] = biological target: recombinant human Nectin-4 protein (human) (UniProt Q96NY8); assay: ELISA, antigen coated at 5 ug/ml, antibody 1000 ng/ml
[4] = biological target: recombinant human Nectin-4 protein (human) (UniProt Q96NY8); assay: ELISA, antigen coated at 5 ug/ml, antibody 10000 ng/ml
[5] = biological target: T1, human Nectin-4 expressed by PC-3-Nectin-4 cells (human, UniProt Q96NY8 32-510); assay: flow cytometry on PC-3-Nectin-4 cells, antibody 5 ug/ml
T1 construct: Full-length human Nectin-4 gene (NCBI Gene ID 81607, 1533 bp) knocked into PC-3 cells; On intact cells in flow cytometry; in denatured cell lysate in Western blotting; also called Nectin-4-expressing cells; Nectin-4-positive cells
T1 sequence: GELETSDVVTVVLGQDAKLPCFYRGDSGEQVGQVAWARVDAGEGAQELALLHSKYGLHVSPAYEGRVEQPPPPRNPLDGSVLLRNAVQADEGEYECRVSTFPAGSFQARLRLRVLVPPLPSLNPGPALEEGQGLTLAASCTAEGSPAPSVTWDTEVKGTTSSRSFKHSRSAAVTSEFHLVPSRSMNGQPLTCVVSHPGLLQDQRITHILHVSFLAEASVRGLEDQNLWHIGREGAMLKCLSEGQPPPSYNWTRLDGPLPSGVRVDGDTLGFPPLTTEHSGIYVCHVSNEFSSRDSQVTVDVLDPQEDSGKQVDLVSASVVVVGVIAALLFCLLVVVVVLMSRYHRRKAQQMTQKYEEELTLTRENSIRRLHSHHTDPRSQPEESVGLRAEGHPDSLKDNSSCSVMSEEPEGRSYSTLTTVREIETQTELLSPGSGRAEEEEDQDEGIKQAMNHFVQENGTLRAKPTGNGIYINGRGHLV

[6] = biological target: recombinant human Nectin-4 protein (human) (UniProt Q96NY8); assay: ELISA, antigen coated at 5 ug/ml, antibody 0 ng/ml (blank control)
[7] = biological target: T2, Nectin-4 in human tissue sections (human, UniProt Q96NY8 32-510); assay: IHC, normal human salivary gland, 3 samples, antibody 1 ug/ml
T2 construct: Endogenous Nectin-4 in formalin-fixed, paraffin-embedded human tissue sections (cell membrane and/or cytoplasm), as stained by immunohistochemistry; also called target protein Nectin-4; Nectin-4 in normal human tissues and tumor tissues
T2 sequence: T1 sequence

[8] = biological target: T2, Nectin-4 in human tissue sections; assay: IHC, normal human pancreas, antibody 1 ug/ml
[9] = biological target: T2, Nectin-4 in human tissue sections; assay: IHC, normal human skin, antibody 1 ug/ml

B1: Antibody MM11 (antibody, mouse IgG1, kappa, V domains shown)
VH: DVQLQESGPGLVKPSQSLSLTCSVTGYSITSNFYWNWIRQFPGNRLEWMGYISYDGSNNYNPSLKNRISISRDTSKNQFFLKLNSVTTEDTATYYCVRADYWGQGTLVTVSA
VL: DTVMTQTPLSLPVSLGDQASISCRSSQSLESSDGHAYLNWYLQKPGQSPQLLIYRVSNRFSGVLHRFSGSGSGTDFTLKISRVEAEDLGVYFCLQFTHVPFTFGSGTKLEIKR
notes: Mouse monoclonal antibody from a hybridoma; heavy chain constant region is mouse IgG1; also called Nectin-4 mouse monoclonal antibody MM11; mouse antibody MM11
- OD detection value (OD450 nm-650 nm) [1]: 0.58
- OD detection value (OD450 nm-650 nm) [2]: 1.64
- OD detection value (OD450 nm-650 nm) [3]: 2.05
- OD detection value (OD450 nm-650 nm) [4]: 1.97
- binding result [5]: binds
- OD detection value (OD450 nm-650 nm) [6]: 0.008
- binding result [7]: binds

B2: Antibody R012 (antibody, V domains shown)
VH: SKSVEESGGRLVTPGTPLTLTCTVSGFSLSTYAMSWVRQAPGKGLEYIGIISGRGTTYYASWLKGRFTISKTSTTVDLKITSPTTEDTATYFCARDAGISDVYTGYFNLWGQGTLVTVSS
VL: QPVLAQLPSASAALGASAKLTCTLSSAHRTYTIAWYQQQQGEAPRYLMMLKSDGSYTKGTGVPDRFSGSSSGADRYLIISSVQAADEADYYCGADDSGGYVFGGGTQLTVTG
notes: Rabbit monoclonal antibody from a phage library; heavy chain constant region is rabbit IgG; also called Nectin-4 rabbit monoclonal antibody R012; rabbit antibody R012
- OD detection value (OD450 nm-650 nm) [1]: 0.748
- OD detection value (OD450 nm-650 nm) [2]: 1.44
- binding result [8]: binds
- OD detection value (OD450 nm-650 nm) [3]: 1.56
- OD detection value (OD450 nm-650 nm) [4]: 1.51
- binding result [5]: binds
- OD detection value (OD450 nm-650 nm) [6]: 0.008

B3: Antibody R036 (antibody, V domains shown)
VH: SQSVEESGGRLVTPGTPLTLTCTVSGFSLSSYAMSWVRQAPGKGLEYIGIIGGRGTTYYAIWAKGRFTISKTSTTVDLKITSPTTEDTATYFCARDAGTTYVGTTYVATGYFNLWGQGTLVTVSS
VL: B2 VL with A5T, L7P, R29K, M49I, K58R, A85D
notes: Rabbit monoclonal antibody from a phage library; heavy chain constant region is rabbit IgG; also called Nectin-4 rabbit monoclonal antibody R036; rabbit antibody R036
- binding result [9]: binds
- OD detection value (OD450 nm-650 nm) [1]: 0.73
- OD detection value (OD450 nm-650 nm) [2]: 1.48
- OD detection value (OD450 nm-650 nm) [3]: 1.64
- OD detection value (OD450 nm-650 nm) [4]: 1.63
- binding result [5]: binds
- OD detection value (OD450 nm-650 nm) [6]: 0.007

— patent EP4725964A1 (Jiangsu Mabwell Health Pharmaceutical R&D Co., Ltd., dated 2026)
